According to patent US20260115290A1:

Molecular target: HLA-DR on K562-CD19-HLA-DR cells (alpha chain UniProtKB-P01903, beta chain UniProtKB-P04229) (human) (UniProt P01903)
Assay: cell-based or functional assay

Question: With “anti-HLA-DR iCAR (FLAG tag, scFv of antibody 1D09C3, PD-1 hinge, transmembrane and intracellular domains) (from UniProt Q15116 145-288) (receptor)” as the substance, how does the CD107a+ population, single against dual CAR-NK cells, K562-CD19-HLA-DR target cells read?
Answer: Its CD107a+ population, single against dual CAR-NK cells, K562-CD19-HLA-DR target cells is 2 to 3 fold.

Question: What about the IFN-γ production (ELISA), dual against single CAR-NK cells with K562-CD19-HLA-DR cells of the same substance?
Answer: The IFN-γ production (ELISA), dual against single CAR-NK cells with K562-CD19-HLA-DR cells was 70 % reduction.
